The Km is the concentration of substrate that gives half-maximal velocity. In general, kcat refers to the maximal rate divided by the concentration of active sites.

Substrate in the series: CC(C)O
Kind of series: purified protein. The note with it: alcohol oxidation; cofactor F420.

B1: ADF (F420-dependent alcohol dehydrogenase) (Methanoculleus thermophilus) (protein)
chain: MKTQIGYFASLEQYRPMDALEQAIRAEKVGFDSVWVDDHFHPWYHDNAQSAQAWAWMGAALQATKKVFISTCITCPIMRYNPAIVAQTFATLRQMYPGRVGVAVGAGEAMNEVPVTGEWPSVPVRQDMTVEAVKVMRMLWESDKPVTFKGDYFTLDKAFLYTKPDDEVPLYFSGMGPKGAKLAGMYGDHLMTVAAAPSTLKNVTIPKFEEGAREAGKDPSKMEHAMLIWYSVDPDYDKAVEALRFWAGCLVPSMFKYKVYDPKEVQLHANLVHCDTIKENYMCATDAEEMIKEIERFKEAGINHFCLGNSSPDVNFGIDIFKEVIPAVRD
With B1, the Km is reported as 1.3 mM and the kcat was determined as 1.7 s⁻¹.
